Assay results: patent US20230257435A1, “Wound Healing Composition and Uses Thereof” (AGENCY FOR SCIENCE, TECHNOLOGY AND RESEARCH, priority 2020, published 2023)

What was measured:
Format in all cases: cell-based, human
[1] = test system: HaCaT cells; test: Collective migration on soft/stiff substrates (stencil barrier)
Description: (§1) Tissue culture plates were coated with Col-T-gel (Fischer Scientific) of stiffness ranging from 0.8 KPa (soft) to 30 KPa (stiff) as per manufacturer recommendations and allowed to solidify for 40 min at 37° C. inside tissue culture incubators. Some experiments were performed with cells seeded on the poly-hydrogel plates of defined stiffness: 0.2 kPa and 16 kPa soft and hard polyhydrogels, respectively (CytoSoft, Advanced Biomatrix, Inc.,). The determination of stiffness of silicone substrates were done by the manufacturer as per previously published protocols. For certain experiments, indicated amounts of sAgrin was incorporated into the 0.8 KPa collagen gels before gelation process. Upon gelation, trypsinized cells or excised mouse skin explants were plated onto the gels of different stiffness either alone or containing sAgrin. The cells/tissues were incubated under standard culture condition with 500 μl recommended culture medium for the indicated days. The crossbow shaped micropatterns with fibronectin coated islands were generated by microlithography on a 19.5×19.5 mm coverslide from Cytoo, Inc., France. The micropatterns had surface areas of 800μ^2 or 1600μ^2, respectively. Fifty thousand cells after initial siRNA treatment was placed on the micropatterns for 4-6 h before processing them for immunofluorescence. For some experiments, 10 μg/ml sAgrin was added on the slides 18 h prior to the addition of cells.
A confluent monolayer of control and Agrin depleted cells in a 6-well plate was subjected to a unidirectional scratch using a 20 μl pipette tip. This was followed by washing with 1×PBS at room temperature and incubation in complete culture media at 37° C. and 5% CO2 with or without sAgrin used as indicated. Phase contrast images of the wound area were taken periodically at the indicated time-points. For some wound-healing migration assays, keratinocytes were cultured on either soft or stiff substrates within a stencil barrier (Nalge Nunc., Inc) for 18 h. Upon removal of the barrier, the cells were allowed to migrate and imaged using an Axiovert 200 inverted microscope at indicated time-points.

[2] = test system: pMLC; test: Force transmission via ligand conjugated magnetic beads
Description: The ligands were conjugated to 4.5 μm epoxide paramagnetic beads (Dynabeads M-450 Epoxy, Thermo Fisher Scientific) according to the manufacturer's manual. Briefly, the beads were washed twice in 0.1 M sodium phosphate buffer, pH 7.4. Subsequently. 8×10^7 beads were conjugated to 20 μg sAgrin, BSA and FN per in 0.1 M sodium phosphate buffer at pH 7.4 for 16-18 h at 4° C. with gentle rotation throughout. The degree of protein conjugation to the beads was verified by a reducing SDS-PAGE gel analysis using a subset of ligand conjugated beads. The remaining beads were washed and subsequently stored in 0.1% BSA-phosphate buffered saline (PBS) pH 7.4 at 4° C. They were subsequently suspended in medium and added on the cells for 30 min at 37° C. After a brief wash with PBS to remove excess non-adherent beads, the cells were placed under a permanent neodymium magnet (J Magnetics, USA) at a distance of 6 mm apart for another 30 min that allowed a vertical tensile force in the magnitudes of ˜200 pN on the beads. The cells were then fixed in 4% paraformaldehyde, permeabilized and processed for immunofluorescence.

[3] = test system: HEK cells; test: Crossbow fibronectin micropatterns (geometric constraint)
Description: as §1, with “For some experiments, 10 μg/ml sAgrin was added on the slides 18 h prior to the addition of cells.” left out

B1: sAgrin: C-terminus recombinant Agrin fragment containing 8 amino acid 'Z8' insert and LG3 domain (SEQ ID NO: 7), His-tagged, expressed in E. coli (protein)
chain: DTLAFDGRTFVEYLNAVTESELANEIPVEKALQSNHFELSLRTEATQGLVLWSGKATERADYVALAIVDGHLQLSYNLGSQPVVLRSTVPVNTNRWLRVVAHREQREGSLQVGNEAPVTGSSPLGATQLDTDGALWLGGLPELPVGPALPKAYGTGFVGCLRDVVVGRHPLHLLEDAVTKPELRPCPTP
modifications: His tag
In the case of B1, the “collective migration rates on compliant substrates” value ([1]; 0.8 kPa, sAgrin 10 μg/ml, 24 h) is reported as “significantly promoted migration rates that was comparable to those in stiff ECM alone”, the “K17 expressing leader cells on soft substrates” value ([1]; soft substrate, sAgrin 10 μg/ml, 4 h) is reported as “stimulated collective migration by activating K17 expressing leader cells” and the “fraction of K17 expressing leader cells in Agrin depleted cells” value ([1]; stiff ECM with sAgrin, 4 h) is reported as “significantly restored”. The “migratory potential of Agrin depleted keratinocytes on stiff substrates” value ([1]; stiff matrix with 10 μg/ml sAgrin) was “significantly rescued”, the “K17 expressing migrating cells after MMP12 knockdown” value ([1]; stiff substrates (30 kPa), 20 μg/ml sAgrin) was “not restored by the nourishment of sAgrin” and the “pMLC recruitment with increasing sAgrin coated beads” value ([2]; 30 min post-wound scratch) was “greater pMLC recruitment at 30 min post-wound scratch in a dose-dependent fashion”. The “pMLC intensity in MMP12 depleted cells after force transmission” value ([2]; 30 min post-wounding) was “unable to rescue the reduced pMLC intensity”, the “pMLC recruitment near beads in control cells with exogenous force” value ([2]; 30 min post-wounding) was “further surged pMLC recruitment” and the “pMLC recruitment upon force in Agrin depleted cells (confocal)” value ([2]; 30 min post-wounding, compared to FN or BSA beads) was “enhanced pMLC recruitment upon force application”. For the same molecule, the “MMP12 recruitment in pMLC activated regions” value ([2]; Agrin depleted cells, force transmission) was “effectively enhanced MMP12 recruitment in pMLC activated regions”, the “increase of pMLC around the bead vicinity” value ([2]; Agrin depleted cells, force with sAgrin beads 30 min) was about 2 folds and the “activated integrin β1-Agrin localization” value ([2]; control migrating keratinocytes, ligand beads, force) was “substantially increased activated integrin β1-Agrin localization”. The “rescue of reduced pMLC in Agrin depleted cells by force through ligand beads” value ([2]; siAgrin cells) was “only restored by force transduced by sAgrin”, the “F-actin stress fibers and pMLC in small crossbow patterns” value ([3]; 800μ^2 patterns, 20 μg/ml sAgrin) was “partially rescued F-actin stress fibers and higher pMLC recruitment to the transverse arc” and the “stress fiber formation in large crossbow patterns” value ([3]; 1600μ^2 patterns) was “further accentuated”. The “tension curvatures at transverse arcs” value ([3]; large crossbow patterns) was “significantly higher tension curvatures”, the “F-actin stress fibers and pMLC in MMP12 knockdown cells” value ([3]; large crossbow patterns, sAgrin nourishment) was “did not exhibit F-actin stress fibers and pMLC enrichment in the transverse arcs” and the “tension signature in Agrin depleted cells” value ([3]; sAgrin in FN crossbow matrix, large patterns) was “restored the tension signature of F-actin stress fiber network and pMLC enriched transverse arcs”.
